Patent publication US20230212304A1 (BIOSION, published 2023)
Where two headings read alike, the source gives them in different places. Blank lines part the entries; values can stand above or below the binder they belong to.

Assays:
[1] = target: T1, recombinant human CTLA4 protein with human IgG1 Fc tag at the C-terminus (Acro biosystems, Cat#CT4-H5255) (human, UniProt P16410 37-162); test: cell based blocking FACS: antibody pre-mixed with human CTLA4-Fc, added to Daudi cells; blocked ligands: cell surface CD80/CD86
T1 construct: bought protein; also called human CTLA4-Fc; CTLA4-Fc; not shown: human IgG1 Fc tag at the C-terminus
T1 sequence (looked up): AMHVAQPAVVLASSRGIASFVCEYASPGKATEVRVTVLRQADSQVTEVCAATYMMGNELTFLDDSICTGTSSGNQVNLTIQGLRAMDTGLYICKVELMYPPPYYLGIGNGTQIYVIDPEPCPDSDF
Method: (§1) Daudi cells were harvested from cell culture flasks at the log phase, washed twice and re-suspended in PBS containing 2% v/v Fetal Bovine Serum (FACS buffer). […] Cells were washed twice and re-suspended in FACS buffer. Fluorescence was measured using a Becton Dickinson FACS Canto II-HTS equipment. Data was analyzed using Graphpad Prism software and IC₅₀ values were reported.
(§2) In the capture ELISA assay, the 96-well micro plates were coated with 2 µg/ml goat anti-human IgG (AffiniPure Goat Anti-Human IgG, F(ab′)₂ fragment specific, Jackson Immunoresearch, Cat#109-005-097) instead of the goat anti-mouse IgG F(ab′)₂ fragment, 100 µl/well.

[2] = target: T1, recombinant human CTLA4 protein with …; test: capture ELISA (plate coated with goat anti-human IgG F(ab')2 per paragraph 181), biotin human CTLA4-Fc, streptavidin-HRP, OD(450-630)
Method: (§3) Plates were washed once with wash buffer (PBS+0.05% v/v Tween-20, PBST) and then blocked with 200 µl/well blocking buffer (PBST with 5% w/v non-fatty milk) for 2 hours at 37° C. […] After a final wash, plates were incubated with 100 µl/well substrate TMB (Innoreagents, Cat#TMB-S-002). The reaction was stopped in 15 minutes at room temperature with 50 µl/well 1M H₂SO₄, and the absorbance of the each well was read on a microplate reader using dual wavelength mode with 450 nm for TMB and 630 nm as the reference wavelength, then the OD (450-630) values were plotted against antibody concentration. Data was analyzed using Graphpad Prism software and EC₅₀ values were reported.
as §2

[3] = target: T2, recombinant human CTLA4-his protein (Acro biosystems, Cat#CT4-H5229) (human, UniProt P16410 37-162); test: BLI, Octet; antibody from cell supernatant on AHC sensor, CTLA4-his as analyte
T2 construct: bought recombinant protein; not shown: his tag
T2 sequence (looked up): T1 sequence (looked up)
Method: (§4) Briefly, AHC biosensors (anti-human IgG Fc capture, from ForteBio) were presoaked with 10 mM glycine (pH 1.5) for 3 seconds, and then dipped in a well with running buffer (0.5% w/v BSA in PBST) for 3 seconds, the soaking and dipping steps were repeated for three times. […] A new baseline was run for 180 seconds in another well with running buffer. […] Finally, sensors were presoaked with 10 mM glycine (pH 1.5) for 3 seconds, and then were dipped in a well with running buffer for 3 seconds, the soaking and dipping steps repeated for three times. The association and dissociation curves were fit to a 1:1 Langmuir binding model using ForteBio Data Analysis 8.1.

[4] = target: T2, recombinant human CTLA4-his protein …; test: SPR, Biacore; antibody captured on anti-human IgG CM5 chip, CTLA4-his as analyte
Method: (§5) Un-reacted moieties on the biosensor surface were blocked with ethanolamine. […] The antigen-antibody association kinetics was followed for 2 minutes and the dissociation kinetics was followed for 10 minutes. The association and dissociation curves were fit to a 1:1 Langmuir binding model using BIAcore evaluation software. […]

[5] = target: T3, cynomolgus monkey CTLA4-his protein (Acro biosystems, Cat#CT4-C5227) (cynomolgus monkey, UniProt G7PL88 36-161); test: as above
T3 construct: bought recombinant protein; also called Cynomolgus CTLA4-his; not shown: his tag
T3 sequence: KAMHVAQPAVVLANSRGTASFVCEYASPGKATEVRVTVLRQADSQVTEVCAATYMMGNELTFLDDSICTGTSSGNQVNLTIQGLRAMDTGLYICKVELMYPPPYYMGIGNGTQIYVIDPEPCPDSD
Method: as §5

[6] = target: T1, recombinant human CTLA4 protein with …; test: competitive ELISA: antibody pre-mixed with biotin human CTLA4-Fc, added to plate coated with the benchmark; competitor: coated Yervoy
Method: (§6) Plates were washed once with wash buffer, blocked with 200 µl PBST with 5% w/v non-fatty milk, incubated for 2 hours at 37° C., and washed 4 times.
(§7) After incubation at 37° C. for 40 minutes, plates were washed 4 times again using wash buffer. Then the plates were added and incubated with 100 µl/well streptavidin conjugated HRP (1:10000 dilution in PBST, Jackson Immuno Research, Cat#016-030-084, 100 µl/well) for 40 minutes at 37° C. Plates were finally washed using wash buffer. Finally, TMB was added and the reaction was stopped using 1M H₂SO₄, and the absorbance of the each well was read on a microplate reader using dual wavelength mode with 450 nm for TMB and 630 nm as the reference wavelength, then the OD (450-630) values were plotted against antibody concentration. Data was analyzed using Graphpad Prism software and IC₅₀ values were reported.
as §2

[7] = target: T1, recombinant human CTLA4 protein with …; test: cell-based or functional assay
[8] = target: T1, recombinant human CTLA4 protein with …; test: capture ELISA: antibody captured on coated plate (anti-human IgG Fc for the chimeric antibodies), biotin human CTLA4-Fc, streptavidin-HRP, OD(450-630)
Method: as §3
For the capture ELISA, AffiniPure Goat Anti-Human IgG, Fcy fragment specific (Jackson Immuno Research, Cat#109-005-008) was used instead of AffiniPure Goat Anti-Mouse IgG, F(ab′)₂ fragment specific, 100 µl/well.

[9] = target: T1, recombinant human CTLA4 protein with …; test: competitive ELISA: antibody pre-mixed with biotin human CTLA4-Fc (65 ng/ml), added to plate coated with the benchmark; competitor: coated Yervoy
Method: as §6, §7

[10] = target: T1, recombinant human CTLA4 protein with …; test: cell-based or functional assay; remark: listed apart in the source
[11] = target: T1, recombinant human CTLA4 protein with …; test: cell based blocking FACS: antibody pre-mixed with human CTLA4-Fc, added to Daudi cells; blocked ligands: cell surface CD80/CD86; remark: listed apart in the source
[12] = target: T1, recombinant human CTLA4 protein with …; test: capture ELISA: antibody captured on anti-mouse IgG F(ab')2 coated plate, biotin human CTLA4-Fc 26 ng/ml, streptavidin-HRP, OD(450-630)
Method: as §3

[13] = target: T1, recombinant human CTLA4 protein with …; test: cell based blocking FACS: antibody pre-mixed with human CTLA4-Fc (1 ug/mL), added to Daudi cells; blocked ligands: cell surface CD80/CD86
Method: as §1

[14] = target: T2, recombinant human CTLA4-his protein …; test: SPR, Biacore T200; antibody captured, CTLA4-his as analyte
Method: (§8) Un-reacted moieties on the biosensor surface were blocked with ethanolamine. […] The antigen-antibody association kinetics was followed for 2 minutes and the dissociation kinetics was followed for 10 minutes. The association and dissociation curves were fit to a 1:1 Langmuir binding model using BIAcore evaluation software.

[15] = target: T3, cynomolgus monkey CTLA4-his protein …; test: as above
Method: as §8

[16] = target: T2, recombinant human CTLA4-his protein …; test: BLI, Octet RED96; antibody on AHC sensor, CTLA4-his as analyte
Method: as §4

IC50 [1]: 5.74 nM
EC50 [2]: 0.746 nM
Kd [3]: 0.614 nM
koff [3]: 0.00019 s⁻¹
kon [3]: 309000 M⁻¹ s⁻¹
Kd [4]: 12 nM
koff [4]: 0.00086 s⁻¹
kon [4]: 71900 M⁻¹ s⁻¹
Kd [5]: 7.49 nM
koff [5]: 0.00112 s⁻¹
kon [5]: 150000 M⁻¹ s⁻¹
IC50 [6]: 1.71 nM
EC50 of IL-2 release (GS-J1 T cells + GS-C1/CD80 cells + human CTLA4-Fc, IL-2 HTRF) [7]: 28.7 nM
B1: huC1D1-V8 (antibody, human IgG4 S228P, kappa, V domains shown)
VH: EVQLVESGGGLVQPGRSLRLSCTASGFTFSDNWMNWVRQAPGKGLEWVGQIRNKPYNYETYYSDSVKGRFTISRDDSKSIAYLQMNSLKTEDTAVYYCTGGMDYWGQGTTVTVSS
VL: DIQMTQSPSSLSASVGDRVTITCGASEIIYGALNWYQQKPGKSPKLLIYGATNLADGVPSRFSGSGSGTDFTLTISSLQPEDVATYYCQKILSPPPWTFGGGTKVEIKR
notes: humanized IgG4/kappa; cell supernatant on Octet, purified antibody in Biacore, ELISA, FACS and the functional assay; also called hu CTLA4 C1D1-V8

EC50 [8]: 0.418 nM
IC50 [9]: 0.618 nM
EC50 of IL-2 release (GS-J1 T cells + GS-C1/CD80 cells + human CTLA4-Fc, IL-2 HTRF) [10]: 36.6 nM
IC50 [11]: 8.09 nM
EC50 [12]: 0.116 nM
IC50 [13]: ~4.6 nM
Kd [14]: 7.45 nM
koff [14]: 0.000487 s⁻¹
kon [14]: 65400 M⁻¹ s⁻¹
Kd [15]: 4.12 nM
koff [15]: 0.000787 s⁻¹
kon [15]: 191000 M⁻¹ s⁻¹
B2: mouse anti-CTLA4 monoclonal antibody D1B6 (antibody, V domains shown)
VH: EVQLQQSGPELVKPGASVKLSCKASGNTFTTYVLNWVKQKPGQGLEWIGYFNPYNDGIKYNEKFKGKATLTSDKSSNTAYMELSSLTSEDSAVYYCARFEGGGYAMDYWGQGTSVTVSS
VL: DIVLTQSPASLAVSLGQRATISCRASQSVGTSRNTYIHWYQQKLGQPPKLLIKYASDLESGVPARFSGSGSGTDFTLNIHPVEEEDTATYYCQHSWEIPYTFGGGTKLEIK
notes: mouse mAb purified from hybridoma supernatant

EC50 [8]: 0.514 nM
Kd [16]: 148 nM
koff [16]: 0.00076 s⁻¹
kon [16]: 5140 M⁻¹ s⁻¹
IC50 [11]: ~6.6 nM
B3: chimeric D1B6 anti-CTLA4 antibody (antibody, human IgG4 S228P, kappa, V domains shown)
VH: B2 VH
VL: DIVLTQSPASLAVSLGQRATISCRASQSVGTSRNTYIHWYQQKLGQPPKLLIKYASDLESGVPARFSGSGSGTDFTLNIHPVEEEDTATYYCQHSWEIPYTFGGGTKLEIKR
notes: mouse variable domains on human IgG4/kappa, made in 293F cells

EC50 [8]: 0.832 nM
IC50 [9]: 0.865 nM
EC50 of IL-2 release (GS-J1 T cells + GS-C1/CD80 cells + human CTLA4-Fc, IL-2 HTRF) [10]: 35.3 nM
IC50 [11]: 10.6 nM
EC50 [12]: 0.134 nM
IC50 [13]: 11 nM
Kd [14]: 1.77 nM
koff [14]: 0.000513 s⁻¹
kon [14]: 290000 M⁻¹ s⁻¹
Kd [15]: 1.71 nM
koff [15]: 0.00077 s⁻¹
kon [15]: 451000 M⁻¹ s⁻¹
B4: mouse anti-CTLA4 monoclonal antibody C1G4 (antibody, V domains shown)
VH: EVKLDETGGGLVQPGRPIKLSCVASGFTFSDNWMNWVRQSPEKGLEWVAQIRNKPYNYETYYSDSVKGRFTISRDDSKSSVYLQMNNLRTKDMGIYYCTGGFTYWGQGTLVTVSA
VL: DIQMTQSPPSLSASVGETVTITCGASENIYGGLNWYQRKQGKSPQLLIYGATNLADGMSSRFSGSGSGRQYSLKISRLHPDDVATYYCQNVLNTPYTFGGGTKLEIK
notes: as for B2

EC50 [8]: 0.869 nM
Kd [16]: 1 nM
koff [16]: 0.000679 s⁻¹
kon [16]: 676000 M⁻¹ s⁻¹
IC50 [11]: 10.2 nM
B5: chimeric C1G4 anti-CTLA4 antibody (antibody, human IgG4 S228P, kappa, V domains shown)
VH: B4 VH
VL: DIQMTQSPPSLSASVGETVTITCGASENIYGGLNWYQRKQGKSPQLLIYGATNLADGMSSRFSGSGSGRQYSLKISRLHPDDVATYYCQNVLNTPYTFGGGTKLEIKR
notes: as for B3
